Drawing on patent JP2011160681A, this text covers Ka and 結合定数 (order of magnitude, unit M as printed) for one molecule.

In assay [1] the target is InfA peptide (GMVDGWYG) (Influenza A virus). In words: ITC, 25 °C, peptide titrated into antibody. A general note: In ITC the heat of successive injections is recorded.
Assay [2] has the same target. Nature of the assay: ITC (summary in the description).

B1: InfA-15 monoclonal antibody (antibody, V domains shown)
VH: QVQLKESGPGLVAPSQSLSITCTVSGFSLTKSGLHWVRQPPGKGLEWLGVIWAGGSTDYNSALTSRLTITKDNSKSQIFFRLNSLQTADTAMYYCVRSTFLYAMDFWGQGTSVTVS
VL: DAVMTQTPLSLPVSLGDQASISCRSSPSLEHSNGNTYLNWYLQKPGQSPQLLIYRVSNRFSGVPDRFSGSGSGTDFTLKISRVEAEDLGVYFCLQVTHVPPTFGGGTKLEIKRA
For the molecule B1, in assay [1], the Ka was determined as 8.6e+06 M⁻¹. In addition, in assay [2], the 結合定数 (order of magnitude, unit M as printed) was determined as 1000 nM.
